Data taken from US20250075002A1.
One block for each binder: values may come before it.

Experiments:
[1] = molecular target: Cyno MUC1 (full length), on cells (cyno); experiment: flow cytometry on HEK293/cyno MUC1 cells
[2] = molecular target: MUC1 as expressed on normal activated human T cells (human) (UniProt P15941); experiment: FACS, PHA-L-activated human PBMC, live αβTCR+ gate, Donor 191180405C; antibody 10 µg/mL by paragraph 182
[3] = molecular target: MUC1 as expressed on normal activated human T cells (human) (UniProt P15941); experiment: FACS, PHA-L-activated human PBMC, live αβTCR+ gate, Donor 190980805C; antibody 10 µg/mL by paragraph 182

Cyno MUC1 (full length), on cells (cyno), sequence (chain, as listed by the source limits assumed, form in doubt): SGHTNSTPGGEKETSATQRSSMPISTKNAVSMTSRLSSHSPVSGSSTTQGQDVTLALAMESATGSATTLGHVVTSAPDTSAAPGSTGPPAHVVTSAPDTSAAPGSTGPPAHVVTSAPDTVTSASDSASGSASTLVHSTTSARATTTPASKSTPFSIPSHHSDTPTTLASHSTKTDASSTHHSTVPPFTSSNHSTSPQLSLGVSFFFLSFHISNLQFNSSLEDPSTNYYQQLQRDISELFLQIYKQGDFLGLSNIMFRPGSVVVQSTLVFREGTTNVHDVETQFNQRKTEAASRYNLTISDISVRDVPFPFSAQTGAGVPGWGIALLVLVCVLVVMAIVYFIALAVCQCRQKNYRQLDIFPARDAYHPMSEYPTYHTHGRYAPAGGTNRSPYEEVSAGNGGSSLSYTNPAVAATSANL
MUC1 as expressed on normal activated human T cells (human), sequence (P15941 24-1255): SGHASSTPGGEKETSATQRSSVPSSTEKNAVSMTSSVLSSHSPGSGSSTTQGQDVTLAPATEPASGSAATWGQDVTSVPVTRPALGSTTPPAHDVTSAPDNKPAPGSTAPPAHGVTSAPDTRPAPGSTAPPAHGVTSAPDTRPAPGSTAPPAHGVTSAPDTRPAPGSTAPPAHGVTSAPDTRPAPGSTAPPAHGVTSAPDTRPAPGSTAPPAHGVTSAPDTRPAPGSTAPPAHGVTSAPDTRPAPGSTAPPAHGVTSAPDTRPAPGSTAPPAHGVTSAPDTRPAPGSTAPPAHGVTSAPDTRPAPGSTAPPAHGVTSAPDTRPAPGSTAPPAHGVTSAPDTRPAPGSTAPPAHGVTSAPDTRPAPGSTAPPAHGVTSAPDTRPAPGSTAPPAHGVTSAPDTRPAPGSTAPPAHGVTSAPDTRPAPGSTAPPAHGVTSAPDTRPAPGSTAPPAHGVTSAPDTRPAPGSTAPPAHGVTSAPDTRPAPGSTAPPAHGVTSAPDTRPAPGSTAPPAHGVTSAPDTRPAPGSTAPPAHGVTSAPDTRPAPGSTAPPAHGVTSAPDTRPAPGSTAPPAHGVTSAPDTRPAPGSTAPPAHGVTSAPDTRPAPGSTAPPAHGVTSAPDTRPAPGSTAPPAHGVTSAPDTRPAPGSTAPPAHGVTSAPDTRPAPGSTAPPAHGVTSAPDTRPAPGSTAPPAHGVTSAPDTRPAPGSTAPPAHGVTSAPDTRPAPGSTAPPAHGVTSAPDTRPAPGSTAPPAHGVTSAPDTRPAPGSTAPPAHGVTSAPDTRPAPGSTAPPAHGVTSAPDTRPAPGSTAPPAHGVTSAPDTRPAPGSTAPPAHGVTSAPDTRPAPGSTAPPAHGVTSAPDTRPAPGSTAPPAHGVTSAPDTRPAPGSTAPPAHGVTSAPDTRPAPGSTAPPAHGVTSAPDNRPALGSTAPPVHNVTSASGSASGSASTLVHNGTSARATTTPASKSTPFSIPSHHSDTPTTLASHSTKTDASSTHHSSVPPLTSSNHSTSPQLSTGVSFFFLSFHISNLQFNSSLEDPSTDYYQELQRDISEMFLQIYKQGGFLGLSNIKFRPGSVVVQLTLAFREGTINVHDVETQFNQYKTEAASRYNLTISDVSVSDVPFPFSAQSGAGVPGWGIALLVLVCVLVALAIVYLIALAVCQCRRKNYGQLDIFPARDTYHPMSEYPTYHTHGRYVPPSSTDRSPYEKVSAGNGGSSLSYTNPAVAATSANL

EC50 [1]: 41.8 nM
B1: chBG346P (antibody, V domains shown)
VH: EVQLQQSGAELVKPGASVKISCKASGYTFTNYWMNWVRQRPGQGLEWIGEIDPSDSYTNNNQKFKDKATLTVDKSSSTAYMQLSSLTSEDSAVYYCARGRRTGFAYWGQGTLVTVSS
VL: DIQMTQSPASLSVSVGETVTITCRASENIYSNLAWYQKKQGKSPQLLVYAATNLADGVPSRFSGSGSGTQYSLKINSLQSEDFGNYYCQHFWGTPYTFGGGTKLEIK

percent of αβTCR+ cells in the MUC1-positive gate (dashed box) [2]: 2.3%
percent of αβTCR+ cells in the MUC1-positive gate (dashed box) [3]: 2.4%
B3: huBG138P-Hz4 (antibody, from another filing, V domains shown)
VH: QVQLVQSGAEVKKPGASVKVSCKASGYTFTTYTMHWVRQAPGQGLEWMGYINPGSDYTHYNQKFKDRVTITADKSASTAYMELSSLRSEDTAVYYCARQGNYAAYYFDYWGQGTLVTVSS
VL: DIQMTQSPSSLSASVGDRVTITCRASGNIHNFLVWYQQKPGKSPKLLIYNAKTLTSGVPSRFSGSGSGTQYTLTISSLQPEDVATYYCQNFWNVPFTFGQGTKLEIK

Further lines, the binder ahead of its results:

B2: chBG219P (antibody, V domains shown)
VH: EVQLVESGGGLVKPGGSLKLSCAASGFTFNDYIMSWVRQTPEKRLEWVATVSSGGDNTYYPDSVKGRFTISRDNAKNNLYLQMSSLRSEDTALYYCTRYGGLGAMDYWGQGTSVTVSS
VL: DIVMTQSPASLSASVGETVTITCRASGNIHNYLTWYQQKQGKSPQLLVYNAKTLADGVPSRFSGSGSGPQYSLKINSLQPEDFGSYYCQHFWSVPYTFGGGTRLEIK
EC50 [1]: 12.7 nM

B4: chBG138P (antibody, V domains shown)
VH: QVQLLQSGAELARPGASVKMSCKASGYTFTTYTMHWIKQRPGQGLEWIGYINPGSDYTHYNQKFKDKATLTADKSSSTAYMHLYSLTSEDSAVYYCARQGNYAAYYFDYWGQGTTLTVSS
VL: DIQMTQSPASLSASVGETVTITCRASGNIHNFLVWYQQKQGKSPQLLVYNAKTLTDGVPSRFSGSGSGTQYSLKIKSLQPEDFGTYYCQNFWNVPFTFGSGTKLEIK
EC50 [1]: 7.55 nM
